Measured values from article PMC6831827, “Structural characterization of the RH1-LZI tandem of JIP3/4 highlights RH1 domains as a cytoskeletal motor-binding motif” (Scientific Reports, 2019).

Tests used:
[1] = target: RILPL2 RH1-cc (Homo sapiens) (UniProt Q969X0); assay: ITC; conditions: cited from earlier work
[2] = target: the molecule itself; assay: SEC-MALS; Superdex 200 10/300 GL increase, 20 mM Hepes pH 7.5, 200 mM NaCl, 0.5 ml/min; oligomeric state of the fragment
[3] = target: T1, human myosin 5a globular tail domain (GTD; residues 1463-1855) (human, UniProt Q9Y4I1 1463-1855); assay: MST; 25 nM Blue-NHS-labelled JIP3 fragment, myo5a-GTD titrated (16 1:1 dilutions); 20 mM hepes pH 7.5, 150 mM NaCl, 2 mM MgCl2, 0.5 mM TCEP, 0.05% tween; 25 °C; three independent replicates; conditions: both partners purified
T1 construct: myosin 5a (myo5a), human, globular tail domain, residues 1463-1855; pProEx HTB vector with N-terminal 6x Histidine tag and a rTEV cleavage site; the methods describe no cleavage step; also called myo5a-GTD; myo5A-GTD; source: E. coli Rosetta, purified (His-Trap, Superdex 75 gel filtration)
T1 sequence (Q9Y4I1 1463-1855): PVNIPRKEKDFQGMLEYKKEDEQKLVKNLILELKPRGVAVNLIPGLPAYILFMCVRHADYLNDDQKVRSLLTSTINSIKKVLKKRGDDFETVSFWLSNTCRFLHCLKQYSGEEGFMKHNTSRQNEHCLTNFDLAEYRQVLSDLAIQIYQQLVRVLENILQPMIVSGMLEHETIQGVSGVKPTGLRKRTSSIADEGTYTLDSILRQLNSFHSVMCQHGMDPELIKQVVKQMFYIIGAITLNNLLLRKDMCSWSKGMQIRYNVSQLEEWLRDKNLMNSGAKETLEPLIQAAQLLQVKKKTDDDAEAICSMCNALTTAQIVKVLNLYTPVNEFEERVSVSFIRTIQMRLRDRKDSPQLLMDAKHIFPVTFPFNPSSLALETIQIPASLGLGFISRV

[4] = target: T1, human myosin 5a globular tail domain …; assay: AUC; sedimentation velocity, absorbance at 280 nm, 20 °C, 42000 rpm; 20 mM Hepes pH 7.5, 150 mM NaCl, 2 mM MgCl2, 1 mM TCEP; mixtures 22.5 uM JIP3-RH1-LZI + 7.5 uM myo5a-GTD and 7.5 uM JIP3-RH1-LZI + 22.5 uM myo5a-GTD; conditions: both partners purified
[5] = target: the molecule itself; assay: AUC; sedimentation velocity with fluorescence detection (SV-FDS), 20 °C, 50,000 rpm; dilution series of Blue-NHS-labelled fragment (RH1-LZI 460 nM to 1.1 nM; LZI 770 nM to 2.4 nM; above 60 nM mixed with unlabelled protein); dimer to monomers

Sequence of myosin Va GTD (Q9Y4I1 1464-1855): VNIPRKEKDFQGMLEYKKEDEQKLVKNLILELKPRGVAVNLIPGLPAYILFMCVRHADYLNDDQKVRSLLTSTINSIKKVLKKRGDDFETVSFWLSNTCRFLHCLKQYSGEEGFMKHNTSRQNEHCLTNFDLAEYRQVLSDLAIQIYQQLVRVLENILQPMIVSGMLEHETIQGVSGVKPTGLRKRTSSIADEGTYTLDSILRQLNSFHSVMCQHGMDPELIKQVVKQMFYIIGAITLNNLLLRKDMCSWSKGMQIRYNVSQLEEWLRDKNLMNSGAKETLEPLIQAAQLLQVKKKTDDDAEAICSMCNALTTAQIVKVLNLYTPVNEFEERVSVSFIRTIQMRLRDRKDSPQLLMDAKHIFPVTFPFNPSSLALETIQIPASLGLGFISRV
Sequence of RILPL2 RH1-cc (Homo sapiens) (Q969X0 1-97): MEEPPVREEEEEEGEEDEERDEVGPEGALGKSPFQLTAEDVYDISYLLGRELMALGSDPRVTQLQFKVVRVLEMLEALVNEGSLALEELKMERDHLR

Molecule | Kd [3] | binding result [4] | Kd [1] | stoichiometry N [2] | Kd [5]
myosin Va GTD (from UniProt Q9Y4I1) |  |  | 300 nM |  | 
LZI fragment of JIP3 (residues 71-187) (domain or fragment, mouse, UniProt Q9ESN9-1 71-187, looked up, labelled with Monolith NT.115 Protein Labelling Kit BLUE NHS in the SV-FDS experiments only, also called JIP3-LZI; LZ1 fragment; not shown: His-thioredoxin, N-terminal, cleaved) SENQEHEVELELLREDNEQLLTQYEREKALRKQAEEKFIEFEDALEQEKKELQIQVEHYEFQTRQLELKAKNYADQISRLEERESEMKKEYNALHQRHTEMIQTYVEHIERSKMQQV |  |  |  | 2 | 110 nM

The next lines start with results.

Kd [3] | binding result [4] | Molecule | Kd [1] | stoichiometry N [2] | Kd [5]
2200 ± 500 nM |  | RH1-lz3 fragment of JIP3 (residues 22-100) (domain or fragment, mouse, UniProt Q9ESN9-1 22-100, looked up, labelled with Protein Labeling Kit Blue-NHS in the MST experiment only, cloned, expressed and purified similarly as the other JIP3 fragments, which are of mouse JIP3 NP_038959.2; also called JIP3-RH1-lz3; JIP3-RH1-Lz3; source: E. coli Rosetta, purified similarly as the other JIP3/4 fragments; not shown: His-thioredoxin, N-terminal, cleaved) GSVMSERVSGLAGSIYREFERLIHCYDEEVVKELMPLVVNVLENLDSVLSENQEHEVELELLREDNEQLLTQYEREKAL |  | 2 | 
 | binds | RH1-LZI fragment of JIP3 (residues 22-187) (domain or fragment, mouse, labelled with Monolith NT.115 Protein Labelling Kit BLUE NHS in the SV-FDS experiments only, Gly-Ser-His residues remaining after the thrombin cleavage; The construct is mouse JIP3; Results and modelling speak of human JIP3 (NP_055948.2); also called JIP3-RH1-LZI; RH1-LZI tandem of JIP3; not shown: His-thioredoxin, N-terminal, cleaved) GSHGSVMSERVSGLAGSIYREFERLIHCYDEEVVKELMPLVVNVLENLDSVLSENQEHEVELELLREDNEQLLTQYEREKALRKQAEEKFIEFEDALEQEKKELQIQVEHYEFQTRQLELKAKNYADQISRLEERESEMKKEYNALHQRHTEMIQTYVEHIERSKMQQV |  | 2 | < 1 nM
